Assay results from article PMC5413573.

Biological target: RseP of E. faecalis LMG3358 (membrane-bound Zn-dependent site-2 protease) (E. faecalis) (UniProt Q9RPP2)
Sequence of UniProt Q9RPP2 (Q9RPP2 whole entry): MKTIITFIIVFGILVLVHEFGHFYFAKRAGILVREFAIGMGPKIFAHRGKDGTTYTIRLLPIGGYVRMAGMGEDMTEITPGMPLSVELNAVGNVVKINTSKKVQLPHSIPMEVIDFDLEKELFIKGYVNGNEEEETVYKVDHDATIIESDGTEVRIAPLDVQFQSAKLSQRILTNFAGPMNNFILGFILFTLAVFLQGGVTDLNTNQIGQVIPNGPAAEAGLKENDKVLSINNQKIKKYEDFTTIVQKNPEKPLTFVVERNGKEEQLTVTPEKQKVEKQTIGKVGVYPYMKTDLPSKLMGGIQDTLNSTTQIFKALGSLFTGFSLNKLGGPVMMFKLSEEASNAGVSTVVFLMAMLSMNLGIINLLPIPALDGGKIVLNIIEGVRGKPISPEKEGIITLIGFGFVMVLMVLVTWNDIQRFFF

Enterocin EJ97 (peptide)
MIC (nM) of the bacteriocin against S. pneumoniae ds220 induced to express E. faecalis rseP (microtiter plate growth inhibition; non-induced cells and cells without rseP >4500 nM): 18 nM

Enterocin K1 (peptide)
MIC (nM) of the bacteriocin against S. pneumoniae ds220 induced to express E. faecalis rseP (microtiter plate growth inhibition; non-induced cells and cells without rseP >5500 nM): 700 nM
